B1: humanized anti-DLK1 antibody 04-0547-h2 (IgG1) (antibody, V domains shown)
VH: EVQLVESGGGLVQPGGSLRLSCAASGFSISDYYMAWVRQAPGKGLEWVANINYDGTNTYYADSVKGRFTISRDNSKNTLYLQMNSLRAEDTAVYYCVRSYYYYGMEYWGQGTTVTVSS
VL: DIQMTQSPSSLSASVGDRVTITCRASHDVSTAVAWYQQKPGKAPKLLIYSASYRYTGVPSRFSGSGSGTDFTLTISSLQPEDFATYYCQQHYRIPLTFGQGTKLEIK
notes: human kappa (P01834) and human IgG1 (P01857) constant regions
B2: humanized anti-DLK1 antibody 04-0561-F1 (IgG1) (antibody, V domains shown)
VH: QVQLQESGPGLVKPSETLSLTCTVSGFSLSIYSVHWVRQPPGKGLEWIGLIWGGGSTDYNPSLKSRVTISKDTSKNQVSLKLSSVTAADTAVYYCARKEGNYLWFAYWGQGTLVTVSS
VL: DIVMTQSPDSLAVSLGERVTMNCKSSQSLLQSSNQKNYLAWYQQKPGQPPKLLVYFASTRESGVPDRFSGSGSGTDFTLTISSVQAEDVAVYYCQQHYSIPLTFGQGTKLEIKR

Columns and labels:
[1] = target: T1, recombinant fusion protein of human DLK1 extracellular domain (ECD) and monomeric immunoglobulin Fc domain … (human, UniProt P80370 24-303); assay: affinity on recombinant DLK1 ECD-mFc; method not stated
T1 construct: also called human DLK1 ECD-mFc fusion protein; not shown: monomeric immunoglobulin Fc domain (mFc)
T1 sequence: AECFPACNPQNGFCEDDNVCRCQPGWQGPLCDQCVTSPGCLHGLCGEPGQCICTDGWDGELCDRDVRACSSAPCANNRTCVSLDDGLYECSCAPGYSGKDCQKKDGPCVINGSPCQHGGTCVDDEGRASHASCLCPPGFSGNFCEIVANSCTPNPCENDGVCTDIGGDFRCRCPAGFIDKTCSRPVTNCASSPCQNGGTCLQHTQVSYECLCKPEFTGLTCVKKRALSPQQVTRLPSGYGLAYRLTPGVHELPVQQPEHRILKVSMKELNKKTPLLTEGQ

[2] = target: T2, human DLK1 long form (isoform 1, DLK1-FL) fused to mGFP, overexpressed on HEK293T cells (human, UniProt P80370 24-383); assay: KinExA on HEK293T DLK1mGFP Human Clone G06 cells detached by Versene; Error% 5.90; 95% CI not defined; equilibrium curves 400pM, 50nM
T2 construct: also called HEK293T DLK1 mGFP G06 (long form); DLK-FL; not shown: mGFP fluorescent protein fused to DLK1
T2 sequence: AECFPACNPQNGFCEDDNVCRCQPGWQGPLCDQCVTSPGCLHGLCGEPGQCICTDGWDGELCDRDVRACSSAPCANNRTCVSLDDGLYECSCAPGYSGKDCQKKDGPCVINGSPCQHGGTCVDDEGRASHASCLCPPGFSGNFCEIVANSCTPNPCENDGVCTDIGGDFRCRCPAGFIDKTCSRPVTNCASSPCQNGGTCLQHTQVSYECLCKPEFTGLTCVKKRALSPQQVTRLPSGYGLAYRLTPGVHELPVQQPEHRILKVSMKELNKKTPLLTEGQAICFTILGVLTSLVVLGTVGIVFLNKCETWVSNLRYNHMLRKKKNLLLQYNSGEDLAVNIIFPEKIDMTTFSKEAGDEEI

[3] = target: T3, rat DLK1 fused to mGFP, overexpressed on HEK293T cells (rat, UniProt O70534 24-383); assay: KinExA on cells, row HEK293T Rat DLK1mGFP mass pop
T3 construct: whole, on cells; not shown: mGFP fluorescent protein fused to DLK1
T3 sequence (looked up): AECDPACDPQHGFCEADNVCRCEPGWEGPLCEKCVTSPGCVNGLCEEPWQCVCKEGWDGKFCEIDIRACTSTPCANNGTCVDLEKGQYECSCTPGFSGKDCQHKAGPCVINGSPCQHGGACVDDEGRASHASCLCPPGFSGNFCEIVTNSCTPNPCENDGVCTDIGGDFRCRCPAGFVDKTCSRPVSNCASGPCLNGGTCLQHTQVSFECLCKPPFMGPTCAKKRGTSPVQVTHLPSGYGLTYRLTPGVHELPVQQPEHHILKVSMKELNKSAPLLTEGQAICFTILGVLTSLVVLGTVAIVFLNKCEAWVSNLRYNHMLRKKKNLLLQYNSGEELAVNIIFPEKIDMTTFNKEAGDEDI

[4] = target: human DLK1-overexpressed on surface of HEK293T cells or DLK1-positive COR-L279 cells; assay: affinity on cells (HEK293T overexpressing human DLK1 or COR-L279); method not stated in the sentence (KinExA is named for FIG. 11)
[5] = target: human DLK1 endogenously expressed on COR-L279 small cell lung carcinoma cells (human) (UniProt P80370); assay: flow cytometry, antibody at 20µg/ml, row CORL-279 (SCLC, DLK+); row M202 of the same block: 5,208.0
[6] = target: T4, monkey DLK1 fused to mGFP, overexpressed on HEK293T cells (monkey (crab-eating macaque), UniProt A0A2K5TMQ6 24-383); assay: KinExA on HEK293T DLK1mGFP Monkey mass pop cells detached by Versene; Error% 3.92; 95% CI 5.15nM - 17.83nM; equilibrium curves 400pM, 50nM
T4 construct: whole, on cells; also called crab-eating macaque DLK1; not shown: mGFP fluorescent protein fused to DLK1
T4 sequence: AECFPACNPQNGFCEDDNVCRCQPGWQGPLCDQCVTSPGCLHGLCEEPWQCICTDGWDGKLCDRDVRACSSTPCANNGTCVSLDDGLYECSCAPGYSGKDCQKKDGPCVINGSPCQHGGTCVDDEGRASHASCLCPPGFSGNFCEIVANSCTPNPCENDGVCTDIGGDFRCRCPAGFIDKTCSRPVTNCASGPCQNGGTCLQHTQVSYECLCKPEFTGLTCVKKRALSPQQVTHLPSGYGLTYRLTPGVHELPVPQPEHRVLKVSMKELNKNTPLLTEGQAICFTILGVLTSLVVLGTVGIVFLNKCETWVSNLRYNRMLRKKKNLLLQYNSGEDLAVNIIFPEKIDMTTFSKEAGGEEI

[7] = target: T5, human DLK1 short form (isoform 2, DLK1-MB) fused to mGFP, expressed on HEK293T cells (human, UniProt P80370 24-383); assay: cell-based or functional assay
T5 sequence: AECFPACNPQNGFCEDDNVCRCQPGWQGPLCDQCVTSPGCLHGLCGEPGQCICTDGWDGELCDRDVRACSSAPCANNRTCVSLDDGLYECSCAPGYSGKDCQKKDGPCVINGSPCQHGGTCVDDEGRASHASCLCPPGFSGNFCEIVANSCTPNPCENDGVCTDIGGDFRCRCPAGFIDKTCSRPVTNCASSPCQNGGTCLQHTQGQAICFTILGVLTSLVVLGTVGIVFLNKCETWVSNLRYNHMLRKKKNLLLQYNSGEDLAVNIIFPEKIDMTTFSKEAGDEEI

[8] = target: T2, human DLK1 long form (isoform 1, …); assay: KinExA on HEK293T DLK1mGFP Human Clone G06 cells detached by Versene; Error% 3.83; 95% CI 0.455nM - 2.19nM; equilibrium curves 500pM, 20nM
[9] = target: either the long or short form of the human DLK1 protein (DLK1 ECD-mFc long form or short form, ELISA coat); assay: ELISA, plates coated with DLK1 ECD-mFc long form or short form, anti-human IgG Fc-HRP detection

Row | Binder | Kd [1] | Kd [2] | Kd [3] | Kd [4] | Antibody Binding Activity by Flow Cytometry (20µg/ml) [5] | Kd [6] | ADCC reporter assay: NFAT activation (Lucia luciferase) in Jurkat-Lucia NFAT-CD16 effector cells, EC50 [7] | Kd [8] | EC50 [9]
1 | B1 | ~0.3 nM | 5.34 nM | 5.96 nM | 5 to 9 nM | 186000 | 9.89 nM |  |  | 
2 | B2 |  |  |  |  |  |  | ~0.101 µg/mL | 1.11 nM | 0.81 to 0.87 nM
